According to US6001823A, “Treatment or prophylaxis of diseases caused by pilus-forming bacteria” (priority 1995, dated 1999):
“Also recorded” adds a separate entry of the source.

Tests used:
PapD [1] = target: T1, PapD (Escherichia coli, UniProt P15319); assay: Protection of PapD against tryptic cleavage by peptides; format: biochemical, E. coli; design: made in house; details: PapD preincubated with 20-fold molar excess of peptide
T1 sequence (P15319 22-239): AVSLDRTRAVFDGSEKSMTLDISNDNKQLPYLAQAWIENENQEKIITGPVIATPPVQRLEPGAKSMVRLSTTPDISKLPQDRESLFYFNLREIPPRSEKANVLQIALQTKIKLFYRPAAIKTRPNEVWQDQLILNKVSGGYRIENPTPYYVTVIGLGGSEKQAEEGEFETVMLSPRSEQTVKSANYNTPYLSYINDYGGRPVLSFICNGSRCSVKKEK
Method: A Lower: The rate of trypsin cleavage of PapD decreased upon preincubation with the G1'-19'WT, G1'-16'WT or K1'-19'WT peptides, but the G2'-21'amide peptide had no effect. 50 μg of purified PapD was preincubated for 15 min at 25° C. with a 20-fold molar excess of G1'-19'WT, G1'-16'WT, K1'-19'WT or G2'-21'amide peptides (any trypsin cleavage sites in these peptides occur at their amino termini where they were predicted not to interfere with PapD), or an equivalent volume of water. Each sample was then incubated at 37° C. with 3.2 μg of trypsin. Aliquots were removed after 0, 5, 10, 20, 30 and 40 min and boiled in SDS-PAGE sample buffer to stop the digestion. The samples were applied to 15% SDS-PAGE gels and the amount of full-length PapD remaining was determined by densitometry of Coomassie blue stained bands corresponding to full-length PapD which are shown.
400 μg of PapD was partially digested by incubation with either 4,5 μg trypsin or 0.45 μg chymotrypsin on PBS for 20 min. at 37° C. The PapD digests were applied to a C-18 HPLC column (Beckman) and 2 major fragments were eluted with a 0-100% acetonitrile gradient in 0.01% trifluoroacetic acid. The PapD fragments were identified by their molecular weight on SDS-PAGE and amino-terminal sequencing. The N-terminal amino acid sequences of the approximately 14 kDa tryptic and chymotryptic fragments were identified as residues 100-108 and 104-109 of PapD, respectively, corresponding to cleavage after Lys-99 (for trypsin) and Leu-103 (for chymotrypsin). The N-terminal sequences of the 11 and 12 kDa bands in the digests were identical to the N-terminal sequence of PapD.

PapD [2] = target: T1, PapD; assay: ELISA: peptide inhibition of PapD binding to MBP-G1'-140' fusion protein; design: species or system E. coli; details: PapD preincubated with peptide at 1:25 ratio
Method: The ability of the peptides to inhibit the binding of PapD to the MBP-G1'-140' fusion protein was then investigated using the following ELISA test:
Stock solutions of MBP-G1'-140' proteins in PBS were diluted to 0.1 μM with PBS. The wells of microtiter plates were coated with 50 μl of the protein solutions overnight at 4° C. The wells were washed with PBS, and blocked with 200 μl of 3% bovine serum albumin (BSA) in PBS for 2 hours at 25° C. The plates were washed vigorously three times with PBS and incubated with 50 μl of 1-5 μM PapD proteins in 3% BSA-PBS for 45 minutes at 25° C. The PapD was preincubated with each of the peptides at a 1:25 ratio for 30 min before being added to the wells. After three washings with PBS, the wells were incubated with a 1:500 dilution of rabbit anti-PapD antiserum in 3% BSA-PBS for 45 minutes at 25° C. After three washings with PBS, the wells were incubated with a 1:1000 dilution of goat antiserum to rabbit IgG coupled to alkaline phosphatase in 3% BSA-PBS for 45 minutes at 25° C. After three washings with PBS and three washings with developing buffer (10 mM diethanolamine, 0.5 mM MgCl2), 50 μl filtered 1 mg/ml p-nitrophenyl phosphate in developing buffer was added, the reaction was incubated for 1 hour or longer if necessary in the dark at 25° C., and the absorbance at 405 nm was read.

NH2--KPGELSGSMTMVLSFP--COOH (H-KPGELSGSMTMVLSFP-OH) [G1'-16'WT]
rate of tryptic cleavage of PapD (PapD [1]): decreased; also recorded: reduced the rate of tryptic cleavage | inhibition of binding of PapD to MBP-G1'-140' fusion protein (PapD [2]): significantly more potent
